Patent US20200231684A1 (published 2020)
Read-outs that look alike come from different tables or passages of the source.

T1: recombinant human IL-36R (ECD) (human, UniProt Q9HB29 20-332)
T1 construct: range 20-332; also called IL-1RL2; IL-1Rrp2
T1 sequence (looked up): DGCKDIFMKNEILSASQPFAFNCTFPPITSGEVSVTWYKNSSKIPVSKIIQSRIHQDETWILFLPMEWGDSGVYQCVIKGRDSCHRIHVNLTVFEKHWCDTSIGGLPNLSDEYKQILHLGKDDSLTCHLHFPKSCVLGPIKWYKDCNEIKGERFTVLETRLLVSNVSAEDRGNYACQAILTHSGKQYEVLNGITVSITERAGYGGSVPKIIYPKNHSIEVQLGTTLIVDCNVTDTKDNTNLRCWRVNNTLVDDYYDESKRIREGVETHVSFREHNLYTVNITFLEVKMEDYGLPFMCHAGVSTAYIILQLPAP

T2: human IL-36R on cells (human, UniProt Q9HB29 20-575)
T2 construct: whole, on cells; also called full-length human IL-36R on HEK293 transfectants; HEK-IL-36R cells
T2 sequence (looked up): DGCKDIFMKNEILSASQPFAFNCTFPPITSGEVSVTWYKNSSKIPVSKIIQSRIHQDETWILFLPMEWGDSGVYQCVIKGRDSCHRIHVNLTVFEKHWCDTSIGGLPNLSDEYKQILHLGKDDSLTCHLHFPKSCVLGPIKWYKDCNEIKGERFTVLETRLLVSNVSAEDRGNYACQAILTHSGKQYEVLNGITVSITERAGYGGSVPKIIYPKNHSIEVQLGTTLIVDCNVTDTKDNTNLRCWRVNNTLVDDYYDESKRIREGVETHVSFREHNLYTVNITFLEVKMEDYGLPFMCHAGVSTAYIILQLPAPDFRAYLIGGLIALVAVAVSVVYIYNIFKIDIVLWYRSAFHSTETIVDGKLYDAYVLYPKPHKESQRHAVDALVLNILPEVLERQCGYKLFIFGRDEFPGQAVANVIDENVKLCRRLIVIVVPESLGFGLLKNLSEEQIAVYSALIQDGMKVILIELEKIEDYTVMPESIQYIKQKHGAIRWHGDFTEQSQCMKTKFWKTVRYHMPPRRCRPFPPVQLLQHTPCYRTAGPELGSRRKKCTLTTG

T3: human IL-1R1 (human, UniProt P14778 18-336, limits assumed)
T3 construct: also called IL-1RI
T3 sequence (looked up): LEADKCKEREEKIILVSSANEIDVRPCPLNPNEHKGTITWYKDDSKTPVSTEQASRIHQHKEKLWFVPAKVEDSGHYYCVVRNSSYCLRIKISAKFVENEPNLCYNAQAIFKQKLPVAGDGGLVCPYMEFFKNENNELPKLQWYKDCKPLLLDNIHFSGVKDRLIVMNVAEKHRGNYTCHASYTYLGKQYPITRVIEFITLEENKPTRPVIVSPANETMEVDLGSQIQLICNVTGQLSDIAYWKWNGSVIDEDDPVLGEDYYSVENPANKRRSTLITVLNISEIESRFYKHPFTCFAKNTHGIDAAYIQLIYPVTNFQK

T4: mouse IL-36R (mouse, UniProt Q9ERS7 22-338)
T4 sequence (looked up): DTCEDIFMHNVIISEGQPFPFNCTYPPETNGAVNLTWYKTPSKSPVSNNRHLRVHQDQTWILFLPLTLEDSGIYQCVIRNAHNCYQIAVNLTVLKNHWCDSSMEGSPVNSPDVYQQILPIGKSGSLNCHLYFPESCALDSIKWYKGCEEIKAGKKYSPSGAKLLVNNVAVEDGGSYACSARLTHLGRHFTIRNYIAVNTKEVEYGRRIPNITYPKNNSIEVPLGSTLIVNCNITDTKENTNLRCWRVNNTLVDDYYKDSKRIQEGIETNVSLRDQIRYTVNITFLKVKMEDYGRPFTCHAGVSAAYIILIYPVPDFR


Legend:
[1] = molecular target: T1, recombinant human IL-36R (ECD); assay: SPR (ProteOn), single IL-36R surface coat concentration
Experimental: A) Kinetics and binding affinities of anti-IL-36R antibodies binding to recombinant human IL-36R were measured using the Proteon (Bio-Rad, Hercules, Calif.) using material generated from hybridoma following single column purification. […] Binding of the chimeric anti-IL36R IgGs is equivalent to the respective mouse leads.

human IL-36R on cells [2] = molecular target: T2, human IL-36R on cells; assay: flow cytometry, HEK293 cells transfected with full-length human IL-36R
Experimental: HEK293 cells transfected with full-length human IL-36R or NCI/ADR-RES cells were passaged for 24 hours prior to staining. Cells were removed from flasks by rinsing with 10 ml of 5 mM EDTA in PBS, and then incubated at 37° C. for 10 min with an additional 10 ml of 5 mM EDTA and 2.5 ml of Accumax to declump/disperse cells. Antibodies were then diluted to specified concentrations in PBS+2% BSA, and cells incubated for 20 min at room temperature. Excess antibody was then washed by adding 200 μl of PBS and then centrifuged. Secondary reagent was then added at 50 μl per well and cells are incubated for 15 min at room temperature and then washed as above. Cells were resuspended in 200 μl PBS and analyzed by flow cytometry.

human IL-1R1 = molecular target: T3, human IL-1R1; assay: BLI (Fortebio Octet), antibody injected over antigen surface
Experimental: (§1) B) Molecular selectivity over mouse IL-36R and human IL-1R1 The mouse and chimeric anti-IL-36R antibodies were also injected over either a mouse IL-36R or a human IL-1R1 surface at a concentration of 100 nM. The binding signal to mouse IL-36R and to human IL-1R1 for these antibodies measured using the Fortebio Octet (Fortebio, Menlo Park, Calif.) is zero, which indicates these antibodies selectively bind to human IL-36R.

mouse IL-36R = molecular target: T4, mouse IL-36R; assay: as above
Experimental: as §1

[3] = molecular target: cynomolgus IL-36R on BaF/3 cells (cynomolgus, UniProt A0A2K5WSK9 20-558); assay: cell-based or functional assay
Chain of cynomolgus IL-36R on BaF/3 cells (A0A2K5WSK9 entry or part of it): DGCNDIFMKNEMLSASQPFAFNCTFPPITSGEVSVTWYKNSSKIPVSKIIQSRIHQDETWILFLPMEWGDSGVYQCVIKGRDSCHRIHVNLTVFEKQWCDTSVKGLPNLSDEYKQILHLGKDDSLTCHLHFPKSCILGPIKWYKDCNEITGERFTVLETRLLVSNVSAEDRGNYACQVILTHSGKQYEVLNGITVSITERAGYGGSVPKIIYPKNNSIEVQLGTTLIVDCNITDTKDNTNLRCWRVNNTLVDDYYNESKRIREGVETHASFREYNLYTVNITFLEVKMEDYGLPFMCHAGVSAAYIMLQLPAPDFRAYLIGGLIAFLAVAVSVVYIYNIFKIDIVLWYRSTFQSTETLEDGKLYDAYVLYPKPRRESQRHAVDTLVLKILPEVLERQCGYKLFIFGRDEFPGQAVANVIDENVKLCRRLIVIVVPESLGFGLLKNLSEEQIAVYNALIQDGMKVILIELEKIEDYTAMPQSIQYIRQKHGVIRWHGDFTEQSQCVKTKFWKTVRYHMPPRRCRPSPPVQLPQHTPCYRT

human IL-36R on cells [4] = molecular target: T2, human IL-36R on cells; assay: cell-based or functional assay
human IL-36R on cells [5] = molecular target: T2, human IL-36R on cells; assay: cell-based or functional assay; remark: listed apart in the source

Binder	Kd [1] [pM]	EC50 (human IL-36R on cells [2]) [pM]	binding result (human IL-1R1)	binding result (mouse IL-36R)	IC90, pNFκB, BaF/3 cynomolgus IL-36R cells, trun-IL-36a [3] [µM]	IC90, pNFκB, BaF/3 cynomolgus IL-36R cells, trun-IL-36b [3] [nM]	IC90, pNFκB, BaF/3 cynomolgus IL-36R cells, trun-IL-36g [3] [nM]	IC90, pNFκB, NCI/ADR-RES cells, trun-IL-36g (human IL-36R on cells [4]) [nM]	IC90, pNFκB, NCI/ADR-RES cells, trun-IL-36a (human IL-36R on cells [5]) [nM]	IC90, pNFκB, NCI/ADR-RES cells, trun-IL-36b (human IL-36R on cells [5]) [nM]	IC90, pNFκB, NCI/ADR-RES cells, trun-IL-36g (human IL-36R on cells [5]) [nM]
antibody 67E7 (antibody, V domains shown, Mouse monoclonal from hybridoma; also called 67E7E8) VH: EVQLQQSGAEFVRPGASVKFSCTASGFNIKDDYIHWVRQRPEQGLEWVGRIDPANGNTKYAPKFQDKATITADTSSNTAYLQLSSLTSEDTAVYYCAKSFPNNYYSYDDAFAYWGQGTLVTVSA VL: DIQMTQSPASQSASLGESVTFTCLASQTIGTWLGWYQQKPGKSPQLLIYRSTTLADGVPSRFSGSGSGTKFSFKISSLQAADFASYYCQQLYSAPYTFGGGTKLEIR	< 100	532	no binding (tested: 100 nM)	no binding (tested: 100 nM)	> 4	> 333	> 333	> 67			
Antibody C1 (antibody, human IgG1, kappa, L234A L235A, V domains shown) VH: QVQLQESGPGLVAPSETLSLTCTVSGFSLTDYAVHWIRQFPGKGLEWIGVIWSDGSTDFNAPFKSRVTISKDTSKNQVSFKLSSVTTDDTAVYYCARKGGYSGSWFAYWGQGTLVTVSS VL: EIVMTQSPATLSVSPGVRATLSCKASQDVGTNVLWYQQKPGQAPRPLIYSASYRHSGIPARFSGSGSGTEFTLTISSLQSEDFAEYYCQQYSRYPLTFGQGTKLEIKR									4.6	5.5	3.4
Antibody C2 (antibody, human IgG1, kappa, L234A L235A, V domains shown) VH: QVQLQESGPGLVKPSETLSITCTVSGFSLTDYAVHWIRQPPGKGLEWIGVIWSDGSTDYNAPFKSRVTISKDNSKSQVSFKMSSVTADDTAVYYCARKGGYSGSWFAYWGQGTLVTVSS VL: EIVMTQSPATLSVSPGVRATLSCKASQDVGTNVLWYQQKPGQAPRPLIYSASYRHSGIPDRFSGSGSGTEFTLTISSLQSEDFAVYYCQQYSRYPLTFGQGTKLEIKR									9.7	8.6	6.1
Antibody C3 (antibody, human IgG1, kappa, L234A L235A, V domains shown) VH: QVQLQESGPGLVAPSETLSLTCTVSGFSLTDYAVHWIRQFPGKGLEWIGVIWSDGSTDFNAPFKSRVTISKDTSKNQVSFKLSSVTTDDTAVYYCARKGGYSGSWFAYWGQGTLVTVSS VL: EIVMTQSPATLSVSPGVRATLSCKASQDVGTNVLWYQQKPGQAPRPLIYSASYRHSGIPDRFSGSGSGTEFTLTISSLQSEDFAVYYCQQYSRYPLTFGQGTKLEIKR									9.8	5.6	5.1

More lines, now with the values ahead:

Kd [1] [pM]	EC50 (human IL-36R on cells [2]) [pM]	binding result (human IL-1R1)	binding result (mouse IL-36R)	IC90, pNFκB, BaF/3 cynomolgus IL-36R cells, trun-IL-36a [3] [µM]	IC90, pNFκB, BaF/3 cynomolgus IL-36R cells, trun-IL-36b [3] [nM]	IC90, pNFκB, BaF/3 cynomolgus IL-36R cells, trun-IL-36g [3] [nM]	IC90, pNFκB, NCI/ADR-RES cells, trun-IL-36g (human IL-36R on cells [4]) [nM]	IC90, pNFκB, NCI/ADR-RES cells, trun-IL-36a (human IL-36R on cells [5]) [nM]	IC90, pNFκB, NCI/ADR-RES cells, trun-IL-36b (human IL-36R on cells [5]) [nM]	IC90, pNFκB, NCI/ADR-RES cells, trun-IL-36g (human IL-36R on cells [5]) [nM]	Binder
< 100	426	no binding (tested: 100 nM)	no binding (tested: 100 nM)	> 4	> 333	> 333	1.9				antibody 76E10 (antibody, V domains shown, Mouse monoclonal from hybridoma; also called 76E10E8) VH: QVQLKESGPVLVAPSQSLSITCTVSGFSLTNYGVHWVRQPPGKGLEWLGVIWPVGSTNYNSALMSRLSIHKDNSKSQVFLRMNSLQTDDTAIYYCAKMDWDDFFDYWGQGTTLTVSS VL: DIVMTQSQKFMSATVGGRVNITCKASQNVGRAVAWYQQKPGQSPKLLTHSASNRYTGVPDRFTGSGSGTDFTLTITNMQSEDLADYFCQQYSSYPLTFGAGTKLDLK
< 100	609	no binding (tested: 100 nM)	no binding (tested: 100 nM)	> 4	> 333	> 333	145				antibody 89A12 (antibody, V domains shown, Mouse monoclonal from hybridoma; also called 89A12B8) VH: EVQLQQSGAELVRPGASVRLSCTASGFNIKDDYIHWVRQRPKQGLEWLGRIDPANGNTKYDPRFQDKATITADTSSNTAYLHLSSLTSEDTAVYYCAKSFPDNYYSYDDAFAYWGQGTLVTVSA VL: DIQMTQSPASQSASLGESVTFSCLASQTIGTWLGWYQQKPGKSPQLLIYRATSLADGVPSRFSGSGSGTNFSFKISSLQAEDLASYYCQQLYSGPYTFGGGTKLEIR
< 100		no binding (tested: 100 nM)	no binding (tested: 100 nM)	> 4	> 333	> 333	3.8				antibody 172C8 (antibody, V domains shown, Mouse monoclonal from hybridoma; also called 172C8B12) VH: EVQLQQSGPELVKPGASVKLSCKASGYTFTDNYMNWVRQSHGKSLEWIGRVNPSNGDTKYNQNFKGKATLTVDKSLSTAYMQLNGLTSEDSAVYYCGRTKNFYSSYSYDDAMDYWGQGTSVTVSS VL: DIQMTQSPASQSASLGESVTFTCLASQTIGTWLAWYQQRPGKSPQLLIYAATSLADGVPSRFSGSGSGTQFSFNIRSLQAEDFASYYCQQVYTTPLTFGGGTKLEIK
